From patent US20210317499A1

Molecular target: His-tagged FcγRIIIa recombinant protein (UniProt P08637)
Assay: SPR (Biacore X100); His-tagged FcγRIIIa captured on anti-His antibody CM5 chip, antibody as analyte; 1:1 Langmuir fit

Chain of UniProt P08637 (P08637 17-208 limits assumed): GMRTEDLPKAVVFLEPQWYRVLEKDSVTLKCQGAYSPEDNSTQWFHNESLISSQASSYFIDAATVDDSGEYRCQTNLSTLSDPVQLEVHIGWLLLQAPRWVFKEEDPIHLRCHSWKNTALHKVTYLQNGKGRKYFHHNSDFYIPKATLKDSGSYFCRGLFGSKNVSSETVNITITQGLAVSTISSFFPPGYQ

- Kd: 39.9 nM
- koff: 0.0069 s⁻¹
- kon: 173000 M⁻¹ s⁻¹
Substance: GAZYVA (obinutuzumab), commercial afucosylated anti-CD20 antibody
